In patent US20220002427A1, “BISPECIFIC ANTIBODY AGAINST BCMA AND CD3 AND AN IMMUNOLOGICAL DRUG FOR COMBINED USE IN TREATING MULTIPLE MYELOMA” (ENGMAB SARL, priority 2016, published 2022):
Numbering of substitutions follows the chain as printed.

T1: huBCMA Fc(kih) (Homo sapiens, UniProt Q02223)
T1 construct: The extracellular domains of human and cynomolgus BCMA comprised methionine 4 to asparagine 53, and methionine 4 to asparagine 52, respectively; made in house; host or cells: HEK EBNA cells
T1 sequence (Q02223 4-53): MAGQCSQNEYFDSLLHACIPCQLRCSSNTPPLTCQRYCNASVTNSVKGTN

T2: huBCMA on HEK cells (Homo sapiens, UniProt Q02223)
T2 construct: expressed in transfected cells; host or cells: HEK cells (HEK-huBCMA)
T2 sequence (Q02223 1-184): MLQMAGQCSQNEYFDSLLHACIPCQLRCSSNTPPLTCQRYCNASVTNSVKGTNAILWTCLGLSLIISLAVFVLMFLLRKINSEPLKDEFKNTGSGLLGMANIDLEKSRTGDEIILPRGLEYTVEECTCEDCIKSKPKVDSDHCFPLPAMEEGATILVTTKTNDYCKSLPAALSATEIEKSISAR

B1: Mab 21: anti-BCMA antibody, VH SEQ ID NO:10, VL SEQ ID NO:12 (antibody, V domains shown)
VH: EVQLLESGGGLVQPGGSLRLSCAASGFTFSDNAMGWVRQAPGKGLEWVSAISGPGSSTYYADSVKGRFTISRDNSKNTLYLQMNSLRAEDTAVYYCAKVLGWFDYWGQGTLVTVSS
VL: EIVLTQSPGTLSLSPGERATLSCRASQSVSEYYLAWYQQKPGQAPRLLIEHASTRATGIPDRFSGSGSGTDFTLTISRLEPEDFAVYYCQQYGYPPDFTFGQGTKVEIK
modifications: Variable region VH; Variable region VL
B2: Mab 22: anti-BCMA antibody, VH SEQ ID NO:10, VL SEQ ID NO:13 (antibody, V domains shown)
VH: B1 VH
VL: B1 VL with E31S, E50S, H51G, S53G, T54S
modifications: Variable region VH; Variable region VL Mab22
B3: Mab 27: anti-BCMA antibody, VH SEQ ID NO:38, VL SEQ ID NO:12 (antibody, V domains shown)
VH: EVQLLESGGGLVQPGGSLRLSCAASGFTFSSAPMGWVRQAPGKGLEWVSAISYIGHTYYADSVKGRFTISRDNSKNTLYLQMNSLRAEDTAVYYCAKVLGWFDYWGQGTLVTVSS
VL: B1 VL
modifications: Mab27 VH; Variable region VL
B4: Mab 39: anti-BCMA antibody, VH SEQ ID NO:40, VL SEQ ID NO:12 (antibody, V domains shown)
VH: B1 VH with S30T, D31Q, G53P, P54T, S56F
VL: B1 VL
modifications: Mab39 VH; Variable region VL
B5: Mab 33: anti-BCMA antibody, VH SEQ ID NO:39, VL SEQ ID NO:12 (antibody, V domains shown)
VH: B1 VH with S30Y, D31T, S52N, G53R, P54F, S56G
VL: B1 VL
modifications: Mab33 VH; Variable region VL
B6: Mab 42: anti-BCMA antibody, VH SEQ ID NO:10, VL SEQ ID NO:14 (antibody, V domains shown)
VH: B1 VH
VL: B1 VL with E31D, Y32E, A35S, E50H, H51S, T75A
modifications: Variable region VH; Variable region VL Mab42

target: T1, huBCMA Fc(kih); assay: Biacore T200 SPR, anti-BCMA antibodies to recombinant human BCMA Fc(kih); assay type: binding; settings: analyte huBCMA Fc(kih), 1:1 Langmuir, 25° C.
Protocol: (§1) Assessment of binding of anti-BCMA antibodies to recombinant BCMA by surface plasmon resonance (SPR) as follow. All SPR experiments were performed on a Biacore T200 at 25° C. with HBS-EP as running buffer (0.01 M HEPES pH 7.4, 0.15 M NaCl, 3 mM EDTA, 0.005% Surfactant P20, Biacore, Freiburg/Germany). The avidity of the interaction between anti-BCMA antibodies and recombinant BCMA Fc(kih) (human and cynomolgus) was determined. Biotinylated recombinant human and cynomolgus BCMA Fc(kih) were directly coupled on a SA chip following instructions (Biacore, Freiburg/Germany). The immobilization level ranged from 200 to 700 RU. The anti-BCMA antibodies were passed at a 2-fold concentration range (1.95 to 500 nM) with a flow of 30 μL/minutes through the flow cells over 120 seconds. The dissociation was monitored for 180 seconds. Bulk refractive index differences were corrected for by subtracting the response obtained on the reference flow cell. Here, the anti-BCMA antibodies were flown over an empty surface previously activated and deactivated as described in the standard amine coupling kit. Apparent kinetic constants were derived using the Biacore T200 Evaluation Software (vAA, Biacore AB, Uppsala/Sweden), to fit rate equations for 1:1 Langmuir binding by numerical integration, despite the bivalency of the interaction for comparison purposes. The affinity of the interaction between anti-BCMA antibodies and recombinant human BCMA Fc(kih) was also determined. Anti-human Fab antibody (GE Healthcare) was directly coupled on a CMS chip at pH 5.0 using the standard amine coupling kit (Biacore, Freiburg/Germany). The immobilization level was about 6500 RU. Anti-BCMA antibody was captured for 90 seconds at 25 nM. Recombinant human BCMA Fc(kih) was passed at a 4-fold concentration range (1.95 to 500 nM) with a flow of 30 μL/minutes through the flow cells over 120 seconds. The dissociation was monitored for 120 seconds. Bulk refractive index differences were corrected for by subtracting the response obtained on reference flow cell. Here, recombinant BCMA was flown over a surface with immobilized anti-human Fab antibody but on which HBS-EP has been injected rather than anti-BCMA antibody. Kinetic constants were derived using the Biacore T100 Evaluation Software (vAA, Biacore AB, Uppsala/Sweden), to fit rate equations for 1:1 Langmuir binding by numerical integration (Table 4).

Koff	Kon	Molecule
4.39e-05 s⁻¹	851000 M⁻¹ s⁻¹	B1
5.15e-05 s⁻¹	814000 M⁻¹ s⁻¹	B2
5.93e-05 s⁻¹	359000 M⁻¹ s⁻¹	B3
5.58e-05 s⁻¹	361000 M⁻¹ s⁻¹	B4
3.55e-05 s⁻¹	200000 M⁻¹ s⁻¹	B5
0.000298 s⁻¹	803000 M⁻¹ s⁻¹	B6

system: cynoBCMA Fc(kih); assay: Biacore T200 SPR, anti-BCMA antibodies to recombinant cynomolgus BCMA Fc(kih); cyno/hu affinity gap; assay type: binding; settings: analyte cynoBCMA Fc(kih), 1:1 Langmuir, 25° C.
Protocol: as §1, with “Here, recombinant BCMA was flown over a surface with immobilized anti-human Fab antibody but on which HBS-EP has been injected rather than anti-BCMA antibody.” left out
Based on the affinity values described in Example 2, the affinity of anti-BCMA antibodies to human BCMA vs. cynomolgus BCMA were compared and cyno/hu affinity ratio (gap) values were calculated (Table 5). Affinity cyno/hu gap was calculated as affinity of antibody to cynomolgus BCMA divided by affinity to human BCMA and means that BCMA antibody binds to human BCMA with x fold binding affinity than to cynomolgus BCMA, where x=cyno/hu gap value.

Molecule	Koff	Kon
B1	0.000235 s⁻¹	491000 M⁻¹ s⁻¹
B2	0.000442 s⁻¹	454000 M⁻¹ s⁻¹
B3	0.000455 s⁻¹	216000 M⁻¹ s⁻¹
B4	0.000467 s⁻¹	215000 M⁻¹ s⁻¹
B5	9.76e-05 s⁻¹	132000 M⁻¹ s⁻¹
B6	0.000453 s⁻¹	707000 M⁻¹ s⁻¹

target: T2, huBCMA on HEK cells; assay: Binding of IgG variants on HEK-huBCMA cells (flow cytometry); settings: not given
Excerpt: FIGS. 18A-18B. FIG. 18A: Binding affinity of BCMA antibodies on HEK-huBCMA cells as measured by flow cytometry. The anti-BCMA antibodies were used as first antibody then a secondary PE-labeled anti-human Fc was used as detection antibody. […] FIG. 18B: Binding affinity of BCMA antibodies on HEK-huBCMA cells as measured by flow cytometry. The anti-BCMA antibodies were used as first antibody then a secondary PE-labeled anti-human Fc was used as detection antibody.
Due to their experience the inventors selected out of these 70 clones further 27 clones based on their binding properties to huBCMA, cynoBCMA, murineBCMA, and ratio, measured in different assays. Out of these clones 4VH and 9VL clones were selected, which results in […]. Binding affinity on HEK-huBCMA cells was measured (FIG. 18 and Table 2E). […] However Mab21, Mab 22, Mab27, Mab33, Mab39, and Mab42 were selected due to their overall properties, like affinity for huBCMA, cynoBCMA, binding as bispecific antibody to BCMA-positive multiple myeloma cell lines H929, L363 and RPMI-8226 by flow cytometry, killing potency of myeloma cells H929, L363 and RPMI-8226, of viable myeloma plasma cells from patient bone marrow aspirates, and pharmacokinetics (PK)) and pharmacodynamics (killing of BCMA positive cells) data in cynomolgus monkeys.

binding to huBCMA on HEK cells compared with Mab 83A10	Molecule
not significantly better	B1
not significantly better	B2
not significantly better	B3
not significantly better	B4
not significantly better	B6
